Data taken from patent US9688764B2, “Methods of treating breast cancer by administering anti-human prolactin receptor (PRLR) antibodies” (REGENERON PHARMACEUTICALS, INC., priority 2013, dated 2017).

T1: HEK293/mPRLR (Mus musculus, UniProt Q08501)
T1 construct: HA; expressed in transfected cells; host or cells: HEK293
T1 sequence (Q08501 20-608): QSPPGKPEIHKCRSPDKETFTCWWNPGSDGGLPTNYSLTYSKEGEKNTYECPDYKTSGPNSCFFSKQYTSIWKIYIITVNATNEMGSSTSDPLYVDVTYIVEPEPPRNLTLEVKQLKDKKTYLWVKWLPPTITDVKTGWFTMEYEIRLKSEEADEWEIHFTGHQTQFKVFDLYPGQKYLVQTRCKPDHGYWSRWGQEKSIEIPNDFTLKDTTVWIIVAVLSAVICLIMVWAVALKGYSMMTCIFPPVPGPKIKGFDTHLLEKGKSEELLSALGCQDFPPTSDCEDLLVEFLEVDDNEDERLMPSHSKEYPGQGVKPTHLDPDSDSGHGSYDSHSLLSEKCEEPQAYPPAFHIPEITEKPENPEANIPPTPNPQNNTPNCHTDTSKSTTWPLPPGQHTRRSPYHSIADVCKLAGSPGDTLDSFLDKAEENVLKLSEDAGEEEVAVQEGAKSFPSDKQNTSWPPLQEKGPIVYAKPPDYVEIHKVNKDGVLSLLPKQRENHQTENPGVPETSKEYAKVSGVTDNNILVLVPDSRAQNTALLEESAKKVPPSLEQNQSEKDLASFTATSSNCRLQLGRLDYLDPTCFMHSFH

T2: T47D (native PRLR expressing cell line) (Homo sapiens, UniProt P16471)
T2 construct: a native PRLR expressing cell line (T47D); endogenous in cells; host or cells: T47D
T2 sequence (P16471 25-622): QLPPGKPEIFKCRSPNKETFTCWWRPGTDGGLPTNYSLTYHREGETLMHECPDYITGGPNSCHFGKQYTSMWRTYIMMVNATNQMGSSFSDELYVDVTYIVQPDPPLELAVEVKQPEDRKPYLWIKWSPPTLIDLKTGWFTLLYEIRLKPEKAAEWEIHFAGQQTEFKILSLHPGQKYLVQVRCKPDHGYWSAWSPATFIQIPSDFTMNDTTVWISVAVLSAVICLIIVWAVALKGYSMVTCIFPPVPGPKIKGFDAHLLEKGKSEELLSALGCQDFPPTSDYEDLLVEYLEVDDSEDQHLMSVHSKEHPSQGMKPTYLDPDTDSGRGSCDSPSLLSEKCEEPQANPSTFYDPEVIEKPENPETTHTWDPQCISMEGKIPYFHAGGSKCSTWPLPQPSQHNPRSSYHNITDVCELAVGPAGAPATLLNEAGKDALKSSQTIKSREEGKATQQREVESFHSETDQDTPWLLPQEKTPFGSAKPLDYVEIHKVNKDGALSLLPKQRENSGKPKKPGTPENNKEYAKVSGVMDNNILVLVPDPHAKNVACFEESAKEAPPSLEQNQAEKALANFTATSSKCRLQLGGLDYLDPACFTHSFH

T3: HEK293/hPRLR (Homo sapiens, UniProt P16471)
T3 construct: HA; expressed in transfected cells; host or cells: HEK293
T3 sequence (P16471 25-622): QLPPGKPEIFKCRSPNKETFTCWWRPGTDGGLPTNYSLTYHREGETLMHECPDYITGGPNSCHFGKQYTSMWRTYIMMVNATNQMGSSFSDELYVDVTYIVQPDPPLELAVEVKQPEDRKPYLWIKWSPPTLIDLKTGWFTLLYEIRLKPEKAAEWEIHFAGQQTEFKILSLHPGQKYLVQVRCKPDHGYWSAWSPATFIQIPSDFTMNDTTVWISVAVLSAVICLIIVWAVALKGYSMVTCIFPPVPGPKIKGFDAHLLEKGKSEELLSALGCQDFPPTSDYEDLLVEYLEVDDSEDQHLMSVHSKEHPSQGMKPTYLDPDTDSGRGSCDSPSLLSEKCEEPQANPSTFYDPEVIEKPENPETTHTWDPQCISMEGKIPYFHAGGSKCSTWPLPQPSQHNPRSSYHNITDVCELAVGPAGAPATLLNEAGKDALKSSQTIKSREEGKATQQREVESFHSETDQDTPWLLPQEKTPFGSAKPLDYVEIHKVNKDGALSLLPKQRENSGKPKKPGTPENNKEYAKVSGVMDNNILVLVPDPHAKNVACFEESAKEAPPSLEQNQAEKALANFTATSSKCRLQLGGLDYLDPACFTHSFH

T4: PRLR-expressing cells (T47D) (Homo sapiens, UniProt P16471)
T4 construct: a native PRLR expressing cell line (T47D); endogenous in cells; host or cells: T47D
T4 sequence (P16471 25-622): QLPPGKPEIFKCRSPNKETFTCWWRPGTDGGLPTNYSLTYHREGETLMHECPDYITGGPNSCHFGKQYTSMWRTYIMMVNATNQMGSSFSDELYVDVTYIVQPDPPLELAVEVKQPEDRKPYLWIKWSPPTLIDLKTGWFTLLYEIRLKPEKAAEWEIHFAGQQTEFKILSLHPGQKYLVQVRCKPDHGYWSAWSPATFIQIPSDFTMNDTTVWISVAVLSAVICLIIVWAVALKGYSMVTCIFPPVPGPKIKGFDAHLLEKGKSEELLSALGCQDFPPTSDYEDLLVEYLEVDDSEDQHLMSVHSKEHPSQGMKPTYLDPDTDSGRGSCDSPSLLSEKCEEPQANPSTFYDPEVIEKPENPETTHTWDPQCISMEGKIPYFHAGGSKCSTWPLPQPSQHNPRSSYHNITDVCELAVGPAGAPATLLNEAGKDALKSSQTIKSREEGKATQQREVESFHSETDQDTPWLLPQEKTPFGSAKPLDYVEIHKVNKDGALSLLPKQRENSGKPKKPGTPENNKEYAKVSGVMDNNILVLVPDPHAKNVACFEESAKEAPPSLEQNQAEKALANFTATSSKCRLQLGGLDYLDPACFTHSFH


Tests used:
HEK293/mPRLR = biological target: T1, HEK293/mPRLR; assay: FACS cell surface binding
Method: (§1) The ability of anti-PRLR antibodies to selectively bind PRLR expressing cell lines was next determined. Human, monkey macaca fascicularis, and mouse PRLR constructs with an HA tag were stably introduced into HEK293 cells via Lipofectamine 2000-mediated transfection methodology. Transfectants (HEK293/hPRLR, HEK293/mfPRLR and HEK293/mPRLR) were selected for at least 2 weeks in complete growth media plus G418.
(§2) Cell surface expression of PRLR on 293/hPRLR cells was assessed via FACS analysis. Briefly, 1×10^5 cells were incubated with 10 μg/ml of Control antibody I, or an isotype control for 30 min on ice in antibody dilution buffer. Following two washes with antibody dilution buffer, cells were incubated with 10 μg/ml of PE conjugated anti-human secondary antibodies for 30 min on ice. Following two additional washes, samples were run on a Hypercyt® cytometer and analyzed in FORECYT™ (IntelliCyt, Albuquerque, N. Mex.). The mean fluorescence intensities (MFI) were expressed as fold change above isotype control levels (background). FACS binding confirmed that Control I selectively bound to 293/hPRLR expressing cells with MFIs that were 30 fold above background (isotype ctrl) levels and less than 2 fold binding on parental cells.
(§3) Next, the anti-PRLR antibodies of the present invention were tested via FACS for selective binding to the engineered overexpressing PRLR HEK293 cell lines, as well as to non-expressing HEK293 cells and a native PRLR expressing cell line (T47D).

[1] = test system: HEK293 (non-expressing parental cells); assay: FACS cell surface binding
Method: as §1, §2, §3

[2] = biological target: T2, T47D (native PRLR expressing cell line); assay: FACS cell surface binding
Method: as §1, §2, §3

HEK293/hPRLR = biological target: T3, HEK293/hPRLR; assay: FACS cell surface binding
Method: as §1, §2, §3

HEK293/mfPRLR = assay: FACS cell surface binding; set-up: species or system macaca fascicularis
Method: as §1, §2, §3

[3] = biological target: T4, PRLR-expressing cells (T47D); assay: Antibody binding and internalization by PRLR-expressing cells (imaging); format: cell-based; details: [mAb] (0.67 nM); for % Internalization relative to Control I: alexa488 intensity in intracellular vesicles, 1 h at 37° C.; for % Total Binding relative to Control I: whole cell alexa488 intensity at 37° C.
Method: In this Example, the internalization of anti-PRLR antibodies by PRLR-expressing cells (T47D) was assessed. Briefly, 20,000 T47D cells were seeded in collagen coated 96 well plates. […] Cells were then incubated with alexa488 conjugated anti-hFc Fab secondary antibodies for 30 minutes on ice followed by two additional PBS washes. Antibodies were allowed to internalize for 1 h at 37° C. in internalization buffer (PBS+2% FBS) or remained at 4° C. Cells were fixed in 4% formaldehyde, nuclei were stained with DRAQ5 (Cell signaling), and images were acquired on the ImageXpress micro XL (Molecular Devices). Whole cell alexa488 intensity at 37° C. (Binding) and the alexa488 intensity in the intracellular vesicles at 37° C. (Internalization) were determined via Columbus image analysis software (PerkinElmer).

Sequence of HEK293/mfPRLR (as listed by the source): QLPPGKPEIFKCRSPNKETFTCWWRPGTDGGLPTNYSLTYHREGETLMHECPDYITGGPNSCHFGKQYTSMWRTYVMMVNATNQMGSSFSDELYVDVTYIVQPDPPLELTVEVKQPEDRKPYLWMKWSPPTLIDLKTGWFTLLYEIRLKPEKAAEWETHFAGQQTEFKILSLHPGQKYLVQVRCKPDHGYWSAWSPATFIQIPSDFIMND

Molecule | FACS Cell Binding (Fold Above Background) (HEK293/mPRLR) | FACS Cell Binding (Fold Above Background) [1] [Fold Above Background] | FACS Cell Binding (Fold Above Background) [2] [Fold Above Background] | FACS Cell Binding (Fold Above Background) (HEK293/hPRLR) | FACS Cell Binding (Fold Above Background) (HEK293/mfPRLR) | % Internalization relative to Control I [3] [%] | % Total Binding relative to Control I [3] [%]
H1H6976N: human IgG1 Fc form of H2M6976N; anti-PRLR; HCVR/LCVR SEQ ID NOs 386/394 (antibody, V domains shown, human IgG1 Fc) VH: EVQLLESGGGFVQPGGSLRLSCAASGFTFSSYAMSWVRQAPGKGLEWVSIISSNGRYTYYADSVKGRFTISRDNSKNTLYLQMNSLRAEDTAVYYCATVTGDWFDPWGQGTLVTVSS VL: DIQLTQSPSFLSASVGDRVTITCWASQDIDISLAWYQQKPGKAPKLLIYAASTLQSGVPSKFSGSGSGTDFTLTISSLQPEDFSTYYCQQLNSYPITFGQGTRLDIK | 1 | 1 | 37 | 8 | 29 | 169.5 | 180.4
H1H6762P: anti-PRLR antibody, human IgG1 Fc; HCVR/LCVR SEQ ID NOs 2/10 (antibody, V domains shown, human IgG1 Fc) VH: QVQLVESGGGVVQPGRSLRLSCAASGFTFSHYGMVWVRQPPGKGLEWVALISFDGTTKYYADSVKGRFTISRDNSKNTLYLQMNSLRAEDTAVYFCVGAIAAAAFDLWGRGTLVTVSS VL: EIVMTQSPATLSVSPGERATLSCRASQSVSSDLAWYQQKPGQAPRLLIYSASARATGIPARFTGSGSGTDFTLTISSLQSEDFAVYYCQQYNNWPMYTFGQGTKLEIK | 2 | 1 | 38 | 36 | 26 | 186.3 | 176.7
H1H6765P: anti-PRLR antibody, human IgG1 Fc; HCVR/LCVR SEQ ID NOs 18/26 (antibody, V domains shown, human IgG1 Fc) VH: EVQLVESGGGVVRPGGSLRLSCVGSGFSFDDHGMNWVRQGPGKGLEWVSGFNWNGGSTNYAESVKGRFTISRDNARNSLFLQMNSLRAEDTALYYCVRGRSGWFNDAFDVWGPGTMVTVSS VL: EIVLTQSPGTLSLSPGERATLSCRASQTINSNYLAWYRQKPGQTPRLLIYGTSSRATGIPDRFSGSGSGTDFSLTISRLEPEDFAVFYCQQYAGLPTFGPGTKVDIK | 1 | 2 | 40 | 38 | 27 | 186.3 | 191.3
H1H6774P: anti-PRLR antibody, human IgG1 Fc; HCVR/LCVR SEQ ID NOs 34/42 (antibody, V domains shown, human IgG1 Fc) VH: EVQLVESGGGLAQPGGSLRLSCVASGFTFSTYWMSWVRQAPGKGLDWVGNIKQDGSEQNYVDSVRGRFTISRDNAKNSLFLQMNSLRAEDTGVYYCATLLTKGDYWGQGTLVTVSS VL: DIQMTQSPSSLSASVGDSVTITCRASQDISNYLDWFQQKPGKAPKSLIYAASILQGGVPSRFSGSGYGTDFTLTISSLQPEDFATYYCRQYKTYPFTFGPGTKVDIK | 1 | 1 | 39 | 1 | 29 | 162.3 | 173.7
H1H6781P: anti-PRLR antibody, human IgG1 Fc; HCVR/LCVR SEQ ID NOs 50/58 (antibody, V domains shown, human IgG1 Fc) VH: EVQLVESGGDLVQPGESLRLSCTASGFTFNSYEMNWVRQAPGKGLEWVSYISSSGGTKYYVDSVKGRFTISRDNAKKSLYLQMNSLRADDTALYYCARLNGVDVFDIWGQGTMVTVSS VL: DIQMTQSPSSLSASVGDRVTITCRASQDIFNYLAWFQQKPGKVPELLISAASTLQSGVPSRFSGSGSGTYFTLTISSLQPEDIATYYCQRYNSAPLTFGGGTKVEIK | 1 | 1 | 40 | 37 | 26 | 165.1 | 166.2
H1H6782P: anti-PRLR antibody, human IgG1 Fc; HCVR/LCVR SEQ ID NOs 66/74; non-blocking (antibody, V domains shown, human IgG1 Fc) VH: EVQLVESGGGLVQPGRSLRLSCAASGFTFDDYAMHWVRQAPGKGLEWVSGIIWNSGHIGYGDSVKGRFTISRDNAKKSLYLQMNSLRAEDTALYYCARDSGRYQSYFDYWGQGTLVTVSS VL: DIQMTQSPSTLSASVGDRVTITCRASHIISSWLAWYQQKPGKAPKVLIFKASSLESGVPSRFSGSGSGTEFTLTISSLQPDDFATYYCQQYNTYSRTFGQGTKVEIK | 4 | 3 | 43 | 41 | 32 | 179.3 | 209.9
